Experimental data from PMC12464271.

Molecular target: HPV-16 L1 capsid protein lacking the first twenty-nine N-terminal amino acids after the start codon (Human papillomavirus type 16) (UniProt P03101)
Experiment: SEC + other: negative-stain TEM; purified L1 in phosphate buffer pH 7.5 with the reducing agent DTT (20 mM); aggregates disassembled into soluble pentamers

## HPV-16 L1 capsid protein lacking the first twenty-nine N-terminal amino acids after the start codon (from UniProt P03101 1-505) (natural protein)
  stoichiometry N: 5
